# Reference: PMC8683692
# Molecular target: CM1021 (human) (UniProt P02768)
# Experiment: SDS-PAGE without and with reduction
# Sequence of CM1021 (P14210 whole entry, looked up, the tested form may be a part): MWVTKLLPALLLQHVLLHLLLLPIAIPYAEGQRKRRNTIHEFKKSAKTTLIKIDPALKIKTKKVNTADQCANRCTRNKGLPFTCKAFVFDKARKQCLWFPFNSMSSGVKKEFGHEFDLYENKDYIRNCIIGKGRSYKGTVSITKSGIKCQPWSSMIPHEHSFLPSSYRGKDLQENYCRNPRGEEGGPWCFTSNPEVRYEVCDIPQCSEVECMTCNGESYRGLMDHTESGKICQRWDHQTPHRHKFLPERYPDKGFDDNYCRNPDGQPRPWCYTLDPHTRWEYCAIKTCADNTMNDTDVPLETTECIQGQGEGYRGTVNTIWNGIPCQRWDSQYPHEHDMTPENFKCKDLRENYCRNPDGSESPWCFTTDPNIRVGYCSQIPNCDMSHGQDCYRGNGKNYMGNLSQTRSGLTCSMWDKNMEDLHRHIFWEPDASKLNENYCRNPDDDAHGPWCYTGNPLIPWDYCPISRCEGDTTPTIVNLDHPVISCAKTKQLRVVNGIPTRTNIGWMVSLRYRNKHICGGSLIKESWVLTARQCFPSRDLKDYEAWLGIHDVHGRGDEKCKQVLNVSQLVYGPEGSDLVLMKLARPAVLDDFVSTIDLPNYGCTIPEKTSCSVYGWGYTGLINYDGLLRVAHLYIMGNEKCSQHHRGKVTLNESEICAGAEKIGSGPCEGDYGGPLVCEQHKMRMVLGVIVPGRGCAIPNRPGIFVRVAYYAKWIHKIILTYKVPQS
# Sequence of CM1021 (P02768 whole entry, looked up, the tested form may be a part): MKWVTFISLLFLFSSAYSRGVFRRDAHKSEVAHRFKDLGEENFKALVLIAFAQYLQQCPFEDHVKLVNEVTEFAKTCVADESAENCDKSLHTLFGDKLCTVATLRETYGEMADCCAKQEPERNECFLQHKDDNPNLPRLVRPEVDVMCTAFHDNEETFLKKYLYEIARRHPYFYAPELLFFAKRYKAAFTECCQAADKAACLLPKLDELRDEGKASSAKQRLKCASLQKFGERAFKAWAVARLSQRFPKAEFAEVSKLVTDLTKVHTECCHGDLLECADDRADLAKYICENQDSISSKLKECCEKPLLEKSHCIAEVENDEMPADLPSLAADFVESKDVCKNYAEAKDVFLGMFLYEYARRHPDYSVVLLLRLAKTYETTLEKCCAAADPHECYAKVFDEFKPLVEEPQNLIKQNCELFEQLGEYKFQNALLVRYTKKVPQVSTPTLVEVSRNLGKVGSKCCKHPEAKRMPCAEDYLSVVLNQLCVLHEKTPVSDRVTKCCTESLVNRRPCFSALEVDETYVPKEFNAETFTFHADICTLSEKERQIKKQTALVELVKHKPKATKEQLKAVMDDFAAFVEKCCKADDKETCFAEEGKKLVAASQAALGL
substance,measurement,value
CM1021 (from UniProt P02768 1-18; P14210 124-210) (Fc fusion),stoichiometry N,2
